Columns and labels:
[1] = target: T1, GgaR (YegW) (Escherichia coli K-12 W3110) (UniProt P0ACM5); experiment: EMSA; conditions: EMSA: binding buffer composition and pH not given; 37 C, 30 min (+30 min with effector); 0.5 pmol probe; 5% PAGE, GelRed stain
T1 sequence: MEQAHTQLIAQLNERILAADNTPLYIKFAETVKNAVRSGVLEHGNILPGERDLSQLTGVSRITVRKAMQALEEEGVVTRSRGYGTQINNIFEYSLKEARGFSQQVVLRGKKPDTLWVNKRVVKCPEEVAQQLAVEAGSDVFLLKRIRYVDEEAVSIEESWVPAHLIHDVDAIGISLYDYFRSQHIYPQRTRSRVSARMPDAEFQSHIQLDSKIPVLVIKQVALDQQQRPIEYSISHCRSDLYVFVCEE

GgaR (YegW) = GgaR (YegW) (Escherichia coli, UniProt P0ACM5); experiment: gel shift assay: loss of GgaR-DNA complex; assay type: binding; conditions: 2.0 pmol GgaR, 0.5 pmol fbaB/yegT spacer DNA probe, 10-100 uM ADPG, 37 °C; effector (inducer) releasing the repressor from DNA

Compound	binding [1]	gel shift assay: loss of GgaR-DNA complex (GgaR (YegW))
AATCATAATCCTGGTCGTTACGGGCGAGTTTTTCCATCTTTTGGATGTTTTTTCAGCGTTTTCTGTTGGCTCGATTCATCAGAAAAAATGTTAGCGCGGTCAAGTTTTCACCGCAAAGGTATTTAAAAGGTATTATTAAGTGGTATTGTCATCGCGTACCTTACATTACCTGTCATGAAGGAATTAAAAGATGAAAACAACAGCAAAGCTGTCGTTCATGATGTTTGTTGAATGGTTTATC (double strand) [probe-2]	binds	–
TTTCTGATGAATCGAGCCAACAGAAAACGCTGAAAAAACATCCAAAAGATGGAAAAACTCGCCCGTAACGACCAGGATTATGATTGCCCGCAAAAGGCGGGCCAGGACAATCCATAGCCGATATCCAATCGGAATTTACGGGAGCATAGTAATGACAGATATTGCGCAGTTGCTTGGCAAAGACGCCGACAACCTTTTACAGCACCGTTGTATGACAATTCCTTCTGACCAGCTTTATCTCCCCGGACATGACTACGTAGACCGCGTAATGATTG (double strand) [probe-1]	no binding	–
AAATGGATATTAAAGTCATGCTCGGCCTGGATGCGCTGATCCTGCTGCGCGATAAAAACTTCCTCGTCTTTTTCTTCTGTTCATTCCTGTTTGCGATGCCACTAGCGTTCTATTACATCTTTGCCAACGGTTATCTGACCGAAGTTGGCATGAAAAACGCCACCGGCTGGATGACGCTCGGCCAGTTCTCTGAAATCTTCTTTATGCTGGCATTGCCGTTTTTCACTAAACGCTTTGGTATCAAAAAGGTATTATTGCTTGGTCTGGTCACCGCTGCGATCCGCTATGGCTTCTTTAT (double strand) [probe-5]	binds more weakly	–
Nc1ncnc2c1ncn2[C@@H]1O[C@H](COP(=O)(O)OP(=O)(O)O[C@H]2O[C@H](CO)[C@@H](O)[C@H](O)[C@H]2O)[C@@H](O)[C@H]1O [ADPG, ADP-glucose]	–	After adding increasing concentrations of ADPG, the complex of GgaR and the fbaB/yegT spacer

Reference: publication PMC10819704, “Regulatory Role of GgaR (YegW) for Glycogen Accumulation in Escherichia coli K-12” (Microorganisms, 2024)
